Data from the supplement of paper PMC7125110.
± gives the standard error. For some assays here: This sample holds only a part of the variants without activity.

B1: glmS ribozyme (parent)
chain: AUAAAAGCGCCAGAACUACAGAAAUGUAGUUGACGAGGAGGAGGUUUAUCGAAUUUUCGGCGGAUGCCUCCAAA

Legend:
Details in all cases: with glucosamine-6-phosphate
[1] = variants of: B1; assay: kcat; higher = faster cleavage; RNA array
Method in brief: (§1)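 Barcoded ribozyme variants on sequenced MiSeq chips were transcribed in situ by E. coli RNA polymerase and followed at 37 °C through a hybridised Cy3 probe. Glucosamine-6-phosphate at 40 μM to 10 mM in HEPES/KCl/Mg(OAc)2 buffer was flowed in, and tiles were imaged over ~14 h. Signals were normalised to baseline and to non-cleaving reference variants, and per-tile medians were fit to one- or two-exponential decays to give kobs. Weighted Michaelis–Menten fits across concentrations gave kcat and KM.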

[2] = variants of: B1; assay: self-cleavage kobs at 40 uM GlcN6P; higher = faster cleavage; RNA array
Method in brief: as §1

[3] = variants of: B1; assay: self-cleavage kobs at 640 uM GlcN6P; higher = faster cleavage; RNA array
Method in brief: as §1

[4] = variants of: B1; assay: self-cleavage kobs at 10000 uM GlcN6P; higher = faster cleavage; RNA array
Method in brief: as §1

[5] = variants of: B1; assay: self-cleavage kobs at 160 uM GlcN6P; higher = faster cleavage; RNA array
Method in brief: as §1

[6] = variants of: B1; assay: self-cleavage kobs at 2500 uM GlcN6P; higher = faster cleavage; RNA array
Method in brief: as §1

[7] = variants of: B1; assay: KM; higher = weaker cofactor use; RNA array
Method in brief: as §1

| Variant | kcat [1] | self-cleavage kobs at 40 uM GlcN6P [2] | self-cleavage kobs at 640 uM GlcN6P [3] | self-cleavage kobs at 10000 uM GlcN6P [4] | self-cleavage kobs at 160 uM GlcN6P [5] | self-cleavage kobs at 2500 uM GlcN6P [6] | KM [7] |
| --- | --- | --- | --- | --- | --- | --- | --- |
| A53C G59C | < 1e-05 s⁻¹ | < 1e-05 s⁻¹ | < 1e-05 s⁻¹ | < 1e-05 s⁻¹ | – | – | – |
| G13U U57A | 2.08e-05 ± 4.9e-06 s⁻¹ | < 1e-05 s⁻¹ | – | – | – | – | – |
| U47C U56A | 0.00197 ± 0.00092 s⁻¹ | 3.94e-05 ± 9.3e-06 s⁻¹ | 0.000985 ± 0.00018 s⁻¹ | 0.00143 ± 0.00023 s⁻¹ | 8.88e-05 ± 1.6e-05 s⁻¹ | 0.00159 ± 0.00039 s⁻¹ | – |
| A12G U30A | 0.00011 ± 1.9e-06 s⁻¹ | – | – | 8.52e-05 ± 7.5e-06 s⁻¹ | – | 5.17e-05 ± 9.7e-06 s⁻¹ | 2890 ± 160 µM |
| U30A U57A | 6.66e-05 ± 1.8e-05 s⁻¹ | < 1e-05 s⁻¹ | 3.87e-05 ± 1.5e-05 s⁻¹ | 6.84e-05 ± 1.4e-05 s⁻¹ | – | 3.73e-05 ± 1.2e-05 s⁻¹ | – |
| U31C G40A | 0.00072 ± 0.00018 s⁻¹ | – | 0.000297 ± 4.4e-05 s⁻¹ | 0.000532 ± 0.0001 s⁻¹ | 6.18e-05 ± 1.5e-05 s⁻¹ | 0.000647 ± 0.00012 s⁻¹ | 1300 ± 550 µM |
| U54A C68A | 5.71e-05 ± 2e-05 s⁻¹ | – | 7.98e-05 ± 1.5e-05 s⁻¹ | – | 4.94e-05 ± 1.5e-05 s⁻¹ | 7.88e-05 ± 1.1e-05 s⁻¹ | – |
| G37A A39C | 0.00108 ± 0.0001 s⁻¹ | – | 0.000144 ± 1.8e-05 s⁻¹ | 0.000742 ± 0.00013 s⁻¹ | 3.21e-05 ± 1.1e-05 s⁻¹ | 0.000399 ± 6e-05 s⁻¹ | 4350 ± 560 µM |
| G29U | 0.00859 ± 0.00066 s⁻¹ | 0.000218 ± 3.7e-06 s⁻¹ | 0.00232 ± 8.4e-05 s⁻¹ | 0.00757 ± 0.00024 s⁻¹ | 0.000677 ± 5.2e-05 s⁻¹ | 0.01 ± 0.0028 s⁻¹ | 1570 ± 140 µM |
| C34A C67G | < 1e-05 s⁻¹ | < 1e-05 s⁻¹ | < 1e-05 s⁻¹ | – | < 1e-05 s⁻¹ | < 1e-05 s⁻¹ | – |
| G51A G59A C70U | 1.55e-05 ± 3.5e-06 s⁻¹ | < 1e-05 s⁻¹ | – | < 1e-05 s⁻¹ | – | – | – |
| A14U A39U A52G | 0.00264 ± 0.00045 s⁻¹ | – | – | 0.000214 ± 3.7e-05 s⁻¹ | – | 5.72e-05 ± 1.2e-05 s⁻¹ | – |
| A33U U69A | 2.24e-05 ± 3e-06 s⁻¹ | < 1e-05 s⁻¹ | – | – | – | – | – |
| A64G C67G | 0.000471 ± 1.9e-05 s⁻¹ | – | 0.000111 ± 1.5e-05 s⁻¹ | 0.000386 ± 3.6e-05 s⁻¹ | – | 0.000275 ± 6.1e-05 s⁻¹ | 2090 ± 180 µM |
| U57G U69A | 3.67e-05 ± 1.4e-05 s⁻¹ | – | 5.54e-05 ± 2.1e-05 s⁻¹ | – | – | – | – |
| A52U C70G | 7.01e-05 ± 1.1e-05 s⁻¹ | – | 5.38e-05 ± 1.1e-05 s⁻¹ | 5.93e-05 ± 7.6e-06 s⁻¹ | – | 8.15e-05 ± 8.6e-06 s⁻¹ | – |

| Variant | kcat [1] | self-cleavage kobs at 40 uM GlcN6P [2] | self-cleavage kobs at 640 uM GlcN6P [3] | self-cleavage kobs at 10000 uM GlcN6P [4] | self-cleavage kobs at 160 uM GlcN6P [5] | self-cleavage kobs at 2500 uM GlcN6P [6] | KM [7] |
| --- | --- | --- | --- | --- | --- | --- | --- |
| A33C U46G | 9.24e-05 ± 1.2e-05 s⁻¹ | – | 2.94e-05 ± 1.3e-05 s⁻¹ | 7.98e-05 ± 1.3e-05 s⁻¹ | – | 8.65e-05 ± 2.1e-05 s⁻¹ | 1050 ± 490 µM |
| U30C U56C | 0.000116 ± 7.6e-06 s⁻¹ | – | – | 8.1e-05 ± 7e-06 s⁻¹ | – | 4.38e-05 ± 4.8e-06 s⁻¹ | 4270 ± 610 µM |
| U30G U55C | 0.00519 ± 0.00037 s⁻¹ | 0.000236 ± 5e-05 s⁻¹ | 0.00192 ± 0.00068 s⁻¹ | 0.00502 ± 0.00092 s⁻¹ | – | 0.00363 ± 0.00086 s⁻¹ | 883 ± 120 µM |
| G29A U45C | 0.000385 ± 7.7e-05 s⁻¹ | – | 8.28e-05 ± 1.4e-05 s⁻¹ | 0.000293 ± 5e-05 s⁻¹ | 3.6e-05 ± 1.4e-05 s⁻¹ | 0.000273 ± 4.1e-05 s⁻¹ | 2000 ± 720 µM |
| C11U A12G | 0.00116 ± 0.00011 s⁻¹ | – | 0.000315 ± 4.3e-05 s⁻¹ | 0.000933 ± 8.4e-05 s⁻¹ | 9.07e-05 ± 1.3e-05 s⁻¹ | 0.00079 ± 8.1e-05 s⁻¹ | 1760 ± 310 µM |
| A33U G40U | 5.28e-05 ± 4e-06 s⁻¹ | < 1e-05 s⁻¹ | – | 1.68e-05 ± 7.9e-06 s⁻¹ | < 1e-05 s⁻¹ | – | – |
| A33U U46G | 1.23e-05 ± 2.7e-06 s⁻¹ | < 1e-05 s⁻¹ | – | – | < 1e-05 s⁻¹ | – | – |
| A14C G66A | 0.00362 ± 0.0004 s⁻¹ | 7.72e-05 ± 1.3e-05 s⁻¹ | 0.000879 ± 0.00024 s⁻¹ | 0.00316 ± 0.00037 s⁻¹ | – | 0.00158 ± 0.00047 s⁻¹ | 1940 ± 370 µM |
| A39C U65G | 0.00143 ± 8.9e-05 s⁻¹ | – | 0.000243 ± 3.9e-05 s⁻¹ | 0.0011 ± 9.8e-05 s⁻¹ | 7.31e-05 ± 2e-05 s⁻¹ | 0.000558 ± 9.7e-05 s⁻¹ | 3200 ± 380 µM |
| G43U U54C | 6.24e-05 ± 1.8e-06 s⁻¹ | – | – | 3.65e-05 ± 1.6e-05 s⁻¹ | – | – | 7100 ± 410 µM |
| A6U G51A C71A | 5.19e-05 ± 1.7e-05 s⁻¹ | – | – | – | – | – | – |
| U31A C70U | 0.0129 ± 0.0056 s⁻¹ | 0.000386 ± 5.3e-05 s⁻¹ | 0.00235 ± 0.00031 s⁻¹ | 0.0113 ± 0.0017 s⁻¹ | 0.000843 ± 0.00019 s⁻¹ | 0.0115 ± 0.0032 s⁻¹ | – |
| G41U U46G | 0.00077 ± 0.00021 s⁻¹ | – | 0.000197 ± 4.2e-05 s⁻¹ | 0.000804 ± 0.00021 s⁻¹ | 8.6e-05 ± 2.2e-05 s⁻¹ | 0.000433 ± 0.00011 s⁻¹ | 1560 ± 690 µM |
| C61A A64U C71G | 1.67e-05 ± 3.2e-06 s⁻¹ | – | – | – | – | – | – |
| G41U A42U | 0.00136 ± 0.00056 s⁻¹ | 9.43e-05 ± 1.1e-05 s⁻¹ | 0.000464 ± 5.5e-05 s⁻¹ | 0.00108 ± 0.00015 s⁻¹ | 0.000106 ± 1.9e-05 s⁻¹ | 0.00119 ± 0.00014 s⁻¹ | – |
| A14U C67G | 0.000352 ± 8e-06 s⁻¹ | – | 9.71e-05 ± 6.9e-06 s⁻¹ | 0.000296 ± 2.9e-05 s⁻¹ | 3.01e-05 ± 6.5e-06 s⁻¹ | 0.000215 ± 1.7e-05 s⁻¹ | 1670 ± 68 µM |
